Assay results reported in US20150315606.

Tests used:
[1] = molecular target: T1, synthetic EPF2 peptide (synEPF2), 30 AA partial EPF2 peptide spanning the predicted cleavage site, Dabcyl-SKNGGVEMEMYPTGSSLPDCSYACGACSPC-Glu(EDANS)
T1 chain: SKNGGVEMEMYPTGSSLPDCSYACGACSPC

[2] = molecular target: T2, synthetic fluorogenic EPF1 peptide
T2 chain: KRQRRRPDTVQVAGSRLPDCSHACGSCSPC

B1: CO2-regulated secreted subtilisin-like serine protease (CRSP), STREP II-tagged, synthesized in vitro in the wheat germ system (protein)
chain: MKGITFFTPFLSFLYLLCILFMTETEAGSRNGDGVYIVYMGSASSAANANRAQILINTMFKRRANDLLHTYKHGFSGFAARLTAEEAKVIAKKPGVVSVFPDPHFQLHTTHSWDFLKYQTSVKVDSGPPSSASDGSYDSIVGILDTGIWPESESFNDKDMGPIPSRWKGTCMEAKDFKSSNCNRKIIGARYYKNPDDDSEYYTTRDVIGHGSHVSSTIAGSAVENASYYGVASGTAKGGSQNARIAMYKVCNPGGCTGSSILAAFDDAIADGVDVLSLSLGAPAYARIDLNTDPIAIGAFHAVEQGILVICSAGNDGPDGGTVTNTAPWIMTVAANTIDRDFESDVVLGGNKVIKGEGIHFSNVSKSPVYPLIHGKSAKSADASEGSARACDSDSLDQEKVKGKIVLCENVGGSYYASSARDEVKSKGGTGCVFVDDRTRAVASAYGSFPTTVIDSKEAAEIFSYLNSTKDPVATILPTATVEKFTPAPAVAYFSSRGPSSLTRSILKPDITAPGVSILAAWTGNDSSISLEGKPASQYNVISGTSMAAPHVSAVASLIKSQHPTWGPSAIRSAIMTTATQTNNDKGLITTETGATATPYDSGAGELSSTASMQPGLVYETTETDYLNFLCYYGYNVTTIKAMSKAFPENFTCPADSNLDLISTINYPSIGISGFKGNGSKTVTRTVTNVGEDGEAVYTVSVETPPGFNIQVTPEKLQFTKDGEKLTYQVIVSATASLKQDVFGALTWSNAKYKVRSPIVISSESSRTN
- MALDI-TOF-MS hits of cleavage fragment SKNGGVEMEMYPTGS (SEQ ID NO:131) [1]: (5 hits)
- MALDI-TOF-MS hits of cleavage fragment SKNGGVEMEMYPTGSSL (SEQ ID NO:130) [1]: (3 hits)
- MALDI-TOF-MS hits of cleavage fragment SKNGGVEMEMYPTGSSLPD (SEQ ID NO:129) [1]: (14 hits)
- MALDI-TOF-MS hits of the uncleaved 30 aa peptide [1]: The 30 aa, full length, uncleaved peptide was also seen (14 hits)
- synthetic peptide and protease fluorogenic cleavage assay [1]: EPF2 cleavage sample traces indicate that EPF2 cleavage by CRSP could be specific (compared with SDD1)
- synthetic peptide and protease fluorogenic cleavage assay [2]: EPF1 cleavage by both SDD1 and CRSP shows low affinity

B2: SDD1 protease, STREPII tagged, synthesized in the SP6-TNT wheat germ system (protein)
chain: MEPKPFFLCIIFLLFCSSSSEILQKQTYIVQLHPNSETAKTFASKFDWHLSFLQEAVLGVEEEEEEPSSRLLYSYGSAIEGFAAQLTESEAEILRYSPEVVAVRPDHVLQVQTTYSYKFLGLDGFGNSGVWSKSRFGQGTIIGVLDTGVWPESPSFDDTGMPSIPRKWKGICQEGESFSSSSCNRKLIGARFFIRGHRVANSPEESPNMPREYISARDSTGHGTHTASTVGGSSVSMANVLGNGAGVARGMAPGAHIAVYKVCWFNGCYSSDILAAIDVAIQDKVDVLSLSLGGFPIPLYDDTIAIGTFRAMERGISVICAAGNNGPIESSVANTAPWVSTIGAGTLDRRFPAVVRLANGKLLYGESLYPGKGIKNAGREVEVIYVTGGDKGSEFCLRGSLPREEIRGKMVICDRGVNGRSEKGEAVKEAGGVAMILANTEINQEEDSIDVHLLPATLIGYTESVLLKAYVNATVKPKARIIFGGTVIGRSRAPEVAQFSARGPSLANPSILKPDMIAPGVNIIAAWPQNLGPTGLPYDSRRVNFTVMSGTSMSCPHVSGITALIRSAYPNWSPAAIKSALMTTADLYDRQGKAIKDGNKPAGVFAIGAGHVNPQKAINPGLVYNIQPVDYITYLCTLGFTRSDILAITHKNVSCNGILRKNPGFSLNYPSIAVIFKRGKTTEMITRRVTNVGSPNSIYSVNVKAPEGIKVIVNPKRLVFKHVDQTLSYRVWFVLKKKNRGGKVASFAQGQLTWVNSHNLMQRVRSPISVTLKTN
- synthetic peptide and protease fluorogenic cleavage assay [2]: EPF1 cleavage by both SDD1 and CRSP shows low affinity
